Experimental data published in publication PMC9600000.

Molecular target: recombinant human prolidase with N-terminal His-Tag (human) (UniProt P12955)
Assay: SEC; Superdex 200 gel filtration in 150 mM NaCl, 25 mM Tris-HCl pH 7.5, 1 mM TCEP-HCl; mass by a commercial standard (Bio-Rad)

recombinant human prolidase with N-terminal His-Tag (from UniProt P12955 1-493) (enzyme)
stoichiometry N: 2
